From article PMC4663267, “A Novel C-Terminal Domain of RecJ is Critical for Interaction with HerA in Deinococcus radiodurans” come the findings set out here.

Data set [1] concerns the target T1, DrHerA (Deinococcus radiodurans, UniProt Q9RW32 1-618).
T1 sequence: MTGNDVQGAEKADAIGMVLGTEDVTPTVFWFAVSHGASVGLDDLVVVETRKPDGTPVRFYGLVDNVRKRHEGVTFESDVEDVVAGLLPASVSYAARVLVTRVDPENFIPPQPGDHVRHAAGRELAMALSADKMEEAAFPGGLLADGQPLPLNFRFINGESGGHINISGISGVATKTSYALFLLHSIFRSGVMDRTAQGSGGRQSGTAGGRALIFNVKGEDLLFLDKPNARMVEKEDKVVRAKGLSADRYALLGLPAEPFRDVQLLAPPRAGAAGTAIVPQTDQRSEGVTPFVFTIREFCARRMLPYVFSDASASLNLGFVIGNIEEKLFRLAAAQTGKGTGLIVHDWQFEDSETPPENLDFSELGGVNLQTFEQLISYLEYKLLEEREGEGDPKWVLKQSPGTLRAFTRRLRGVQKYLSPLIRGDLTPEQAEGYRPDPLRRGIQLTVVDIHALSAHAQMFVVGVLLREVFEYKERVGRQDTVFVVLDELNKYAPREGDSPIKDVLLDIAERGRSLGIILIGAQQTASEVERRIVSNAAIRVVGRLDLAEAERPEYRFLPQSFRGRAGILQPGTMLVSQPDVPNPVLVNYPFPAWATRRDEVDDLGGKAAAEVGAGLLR
Nature of the data set: EMSA; HerA alone; EMSA: 100 nM DNA, 80 mM NaCl, 20 mM Tris-HCl pH 7.5, 1 mM DTT, 30 C, 10 min, 5% TBE native PAGE. Particulars: protein: recombinant; tags: N-terminal His6; chain copies: 6; label: 5' FAM; single strand.

Data set [2] deals with T2, DrRecJ (Deinococcus radiodurans, UniProt D0EM60 1-705).
T2 sequence: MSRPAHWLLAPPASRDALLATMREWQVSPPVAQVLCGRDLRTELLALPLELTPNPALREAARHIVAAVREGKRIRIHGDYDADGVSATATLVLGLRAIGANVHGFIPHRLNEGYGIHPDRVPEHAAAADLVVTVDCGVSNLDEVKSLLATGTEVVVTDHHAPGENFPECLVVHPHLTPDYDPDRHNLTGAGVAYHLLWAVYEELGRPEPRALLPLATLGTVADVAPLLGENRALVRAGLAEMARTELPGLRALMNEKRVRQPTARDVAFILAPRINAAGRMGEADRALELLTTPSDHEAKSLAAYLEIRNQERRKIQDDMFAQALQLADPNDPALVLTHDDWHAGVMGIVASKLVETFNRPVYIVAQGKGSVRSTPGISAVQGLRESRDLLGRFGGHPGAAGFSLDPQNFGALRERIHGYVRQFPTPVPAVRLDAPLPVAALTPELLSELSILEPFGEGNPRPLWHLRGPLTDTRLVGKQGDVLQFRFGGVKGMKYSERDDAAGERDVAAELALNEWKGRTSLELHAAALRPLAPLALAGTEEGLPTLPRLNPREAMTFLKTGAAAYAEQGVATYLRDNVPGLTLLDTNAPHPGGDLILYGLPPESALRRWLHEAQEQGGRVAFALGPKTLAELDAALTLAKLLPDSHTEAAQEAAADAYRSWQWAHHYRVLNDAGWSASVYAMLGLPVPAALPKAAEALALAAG
Nature of the data set: EMSA; DNA:RecJ 1:2 to 1:16; no metal added; EMSA: 100 nM DNA, 80 mM NaCl, 20 mM Tris-HCl pH 7.5, 1 mM DTT, 30 C, 10 min, 5% TBE native PAGE. Particulars: protein: recombinant; tags: HMT (His6-MBP) tag removed by TEV; label: 5' FAM; single strand. In general terms: In EMSA bound probe runs differently from free probe, usually more slowly.

As to AAAAAAAAAA (ssDNA) [O1 (10 nt ssDNA)], the binding result is given as “no binding” in data set [1] and “binds” in data set [2].
